Measured values from patent US20090068637A1.
Changes are numbered by the printed parent chain.

What was measured:
Assay in all cases: cell-based or functional assay
[1] = molecular target: H5 virus strains (thirty-four strains of H5N1 viruses)
[2] = molecular target: HA of H5N1 virus strain GD1 (avian influenza virus H5N1)
[3] = molecular target: HA of H5N1 virus strain GD2 (avian influenza virus H5N1)
[4] = molecular target: HA of H5N1 virus strain GD3 (avian influenza virus H5N1)
[5] = molecular target: HA of H5N1 virus strain HN1 (avian influenza virus H5N1)
[6] = molecular target: HA of H5N1 virus strain HN2 (avian influenza virus H5N1)
[7] = molecular target: HA of H5N1 virus strain IDN1.1 (avian influenza virus H5N1)
[8] = molecular target: HA of H5N1 virus strain IDN2 (avian influenza virus H5N1)
[9] = molecular target: HA of H5N1 virus strain IDN3 (avian influenza virus H5N1)
[10] = molecular target: HA of H5N1 virus strain IDN4 (avian influenza virus H5N1)
[11] = molecular target: HA of H5N1 virus strain IDN5 (avian influenza virus H5N1)
[12] = molecular target: HA of H5N1 virus strain MB1 (avian influenza virus H5N1)
[13] = molecular target: HA of H5N1 virus strain MB2 (avian influenza virus H5N1)
[14] = molecular target: HA of H5N1 virus strain MIX1 (avian influenza virus H5N1)
[15] = molecular target: HA of H5N1 virus strain MIX2 (avian influenza virus H5N1)
[16] = molecular target: HA of H5N1 virus strain MIX3 (avian influenza virus H5N1)
[17] = molecular target: HA of H5N1 virus strain VNM2.1 (avian influenza virus H5N1)
[18] = molecular target: HA of H5N1 virus strain VTM1.1 (avian influenza virus H5N1)
[19] = molecular target: HA of H5N1 virus strain VTM2 (avian influenza virus H5N1)
[20] = molecular target: HA of H5N1 virus strain VTM3 (avian influenza virus H5N1)
[21] = molecular target: HA of H5N1 virus strain VTM4 (avian influenza virus H5N1)
[22] = molecular target: HA of H5N1 virus strain YN1 (avian influenza virus H5N1)
[23] = molecular target: non-H5 viruses (14 strains; H1~H13, Chicken NDV)
[24] = molecular target: HA of H5N1 virus strain A1 (avian influenza virus H5N1)
[25] = molecular target: HA of H5N1 virus strain A2 (avian influenza virus H5N1)
[26] = molecular target: HA of H5N1 virus strain A3 (avian influenza virus H5N1)
[27] = molecular target: HA of H5N1 virus strain A5 (avian influenza virus H5N1)
[28] = molecular target: HA of H5N1 virus strain A6 (avian influenza virus H5N1)
[29] = molecular target: HA of H5N1 virus strain A7 (avian influenza virus H5N1)
[30] = molecular target: HA of H5N1 virus strain A8 (avian influenza virus H5N1)
[31] = molecular target: HA of H5N1 virus strain B1 (avian influenza virus H5N1)
[32] = molecular target: HA of H5N1 virus strain B2 (avian influenza virus H5N1)
[33] = molecular target: HA of H5N1 virus strain B3 (avian influenza virus H5N1)
[34] = molecular target: HA of H5N1 virus strain B4 (avian influenza virus H5N1)
[35] = molecular target: HA of H5N1 virus strain B5 (avian influenza virus H5N1)
[36] = molecular target: HA of H5N1 virus strain B6 (avian influenza virus H5N1)
[37] = molecular target: HA of H5N1 virus strain B7 (avian influenza virus H5N1)
[38] = molecular target: HA of H5N1 virus strain B8 (avian influenza virus H5N1)
[39] = molecular target: HA of H5N1 virus strain C2 (avian influenza virus H5N1)
[40] = molecular target: HA of H5N1 virus strain C3 (avian influenza virus H5N1)
[41] = molecular target: HA of H5N1 virus strain D1 (avian influenza virus H5N1)
[42] = molecular target: HA of H5N1 virus strain D2 (avian influenza virus H5N1)
[43] = molecular target: HA of H5N1 virus strain E1 (avian influenza virus H5N1)
[44] = molecular target: HA of H5N1 virus strain E2 (avian influenza virus H5N1)
[45] = molecular target: HA of H5N1 virus strain F2 (avian influenza virus H5N1)
[46] = molecular target: HA of H5N1 virus strain F3 (avian influenza virus H5N1)
[47] = molecular target: HA of H5N1 virus strain G1 (avian influenza virus H5N1)
[48] = molecular target: HA of H5N1 virus strain H1 (avian influenza virus H5N1)
[49] = molecular target: HA of H5N1 virus strain H2 (avian influenza virus H5N1)

B1: monoclonal antibody 3C8 (antibody, V domains shown)
VH: QIQLVQSGPELKKPGETVKISCKASGYSFTNYGMNWVKQAPGKGLKWMGWINTYTGEPAYADDFKGRFAFSLETSASTAYLQINNLKNEDTATYFCARWNRDAMDYWGQGTSVTVSS
VL: DIVLTQSPASLAVSLGQRATISCRASESVDSSDNSLMHWYQQKPGQPPKLLIYRASNLESGIPARFSGSGSRTDFTLTINPVEADDVATYYCQQSIGDPPYTFGGGTKLEIKR
HI assay: positive number/total virus number (of 34 strains) [1]: 32
HI titer [2]: 6400 titer
Neutralization titer [2]: 12800 titer
HI titer [3]: 12800 titer
Neutralization titer [3]: 12800 titer
HI titer [4]: 3200 titer
Neutralization titer [4]: 200 titer
HI titer [5]: 3200 titer
Neutralization titer [5]: 12800 titer
HI titer [6]: 800 titer
Neutralization titer [6]: 6400 titer
HI titer [7]: 3200 titer
Neutralization titer [7]: 6400 titer
HI titer [8]: 400 titer
Neutralization titer [8]: 12800 titer
HI titer [9]: < 100 titer
HI titer [10]: 6400 titer
Neutralization titer [10]: 12800 titer
HI titer [11]: 6400 titer
Neutralization titer [11]: 6400 titer
HI titer [12]: 400 titer
HI titer [13]: 3200 titer
Neutralization titer [13]: 12800 titer
HI titer [14]: 1600 titer
Neutralization titer [14]: 100 titer
HI titer [15]: 800 titer
Neutralization titer [15]: < 100 titer
HI titer [16]: 400 titer
Neutralization titer [16]: 200 titer
HI titer [17]: < 100 titer
Neutralization titer [17]: < 100 titer
HI titer [18]: 3200 titer
Neutralization titer [18]: 1600 titer
HI titer [19]: 1600 titer
Neutralization titer [19]: 6400 titer
HI titer [20]: 6400 titer
Neutralization titer [20]: 12800 titer
HI titer [21]: 800 titer
Neutralization titer [21]: 12800 titer
HI titer [22]: 1600 titer
HI assay: positive number/total virus number (of 14 strains) [23]: 0

B2: monoclonal antibody 4D1 (antibody, V domains shown)
VH: QVQLQQPGAELVKPGASVNLSCKASGYTFTSYWMHWVKQRPGQGLEWIGEIDPSDSFTTYNQNFKDRATLTVDKSSSTAYMQLRSLTSEDSAVYYCARGGPGDFRYAMDYWGQGTSVTVSS
VL: DILMTQSPSSMSVSLGDTVSITCHASQGISSNIGWLQQKPGKSFKGLIYHGTNLEDGVPSRFSGSGSGADYSLTISSLESEDFADYYCVQYVQFPYTFGGGTKLEIKR
HI assay: positive number/total virus number (of 34 strains) [1]: 34
HI titer [2]: 12800 titer
Neutralization titer [2]: 12800 titer
HI titer [3]: 800 titer
Neutralization titer [3]: 12800 titer
HI titer [4]: 12800 titer
Neutralization titer [4]: 12800 titer
HI titer [5]: 12800 titer
Neutralization titer [5]: 12800 titer
HI titer [6]: 3200 titer
Neutralization titer [6]: 12800 titer
HI titer [7]: 12800 titer
Neutralization titer [7]: 12800 titer
HI titer [8]: 800 titer
Neutralization titer [8]: 12800 titer
HI titer [9]: 6400 titer
Neutralization titer [9]: 12800 titer
HI titer [10]: 12800 titer
Neutralization titer [10]: 12800 titer
HI titer [11]: 12800 titer
Neutralization titer [11]: 12800 titer
HI titer [12]: 3200 titer
Neutralization titer [12]: 6400 titer
HI titer [13]: 6400 titer
Neutralization titer [13]: 12800 titer
HI titer [14]: 12800 titer
Neutralization titer [14]: 12800 titer
HI titer [15]: 12800 titer
Neutralization titer [15]: 12800 titer
HI titer [16]: 12800 titer
Neutralization titer [16]: 12800 titer
HI titer [17]: 400 titer
Neutralization titer [17]: 1600 titer
HI titer [18]: 3200 titer
Neutralization titer [18]: 1600 titer
HI titer [19]: 3200 titer
Neutralization titer [19]: 3200 titer
HI titer [20]: 12800 titer
Neutralization titer [20]: 12800 titer
HI titer [21]: 400 titer
Neutralization titer [21]: 1600 titer
HI titer [22]: 6400 titer
Neutralization titer [22]: 12800 titer
HI assay: positive number/total virus number (of 14 strains) [23]: 0

B3: monoclonal antibody 10F7 (antibody, V domains shown)
VH: B2 VH with N19K, F57Y, T59N, N63K, D66G, R67K, R84S, P101T, R105H
VL: B2 VL
HI assay: positive number/total virus number (of 34 strains) [1]: 34
HI titer [2]: 6400 titer
Neutralization titer [2]: 12800 titer
HI titer [3]: 12800 titer
Neutralization titer [3]: 12800 titer
HI titer [4]: 12800 titer
Neutralization titer [4]: 12800 titer
HI titer [5]: 12800 titer
Neutralization titer [5]: 12800 titer
HI titer [6]: 1600 titer
Neutralization titer [6]: 12800 titer
HI titer [7]: 12800 titer
Neutralization titer [7]: 12800 titer
HI titer [8]: 1600 titer
Neutralization titer [8]: 12800 titer
HI titer [9]: 1600 titer
Neutralization titer [9]: 12800 titer
HI titer [10]: 12800 titer
Neutralization titer [10]: 12800 titer
HI titer [11]: 6400 titer
Neutralization titer [11]: 12800 titer
HI titer [12]: 6400 titer
Neutralization titer [12]: 12800 titer
HI titer [13]: 12800 titer
Neutralization titer [13]: 12800 titer
HI titer [14]: 12800 titer
Neutralization titer [14]: 12800 titer
HI titer [15]: 12800 titer
Neutralization titer [15]: 12800 titer
HI titer [16]: 12800 titer
Neutralization titer [16]: 12800 titer
HI titer [17]: 3200 titer
Neutralization titer [17]: 200 titer
HI titer [18]: 3200 titer
Neutralization titer [18]: 3200 titer
HI titer [19]: 1600 titer
Neutralization titer [19]: 3200 titer
HI titer [20]: 12800 titer
Neutralization titer [20]: 12800 titer
HI titer [21]: 400 titer
Neutralization titer [21]: 200 titer
HI titer [22]: 3200 titer
Neutralization titer [22]: 12800 titer
HI assay: positive number/total virus number (of 14 strains) [23]: 0

B4: monoclonal antibody 8H5 (antibody, V domains shown)
VH: QVQLQQSGAELMKPGASVKISCKATGYTFSNYWIEWIKQRPGHGLEWIGEILPGSDRTNYNGKFKGKATFTADTSSNTAHMQLSSLTSEDSAVYYCANRYDGYYFGLDYWGQGTSVAVSS
VL: EIVLTQSPAIMSASLGEKVTMSCRASSSVNFVYWYQQRSDASPKLLIYYSSNLAPGVPPRFSGSGSGNSYSLTISGLEGEDAATYYCQHFTSSPYTFGGGTNLEIKR
HI assay: positive number/total virus number (of 14 strains) [23]: 0

B5: 4D1 single chain antibody (scFv)
scFv: QVQLQQPGAELVKPGASVNLSCKASGYTFTSYWMHWVKQRPGQGLEWIGEIDPSDSFTTYNQNFKDRATLTVDKSSSTAYMQLRSLTSEDSAVYYCARGGPGDFRYAMDYWGQGTSVTVSSGGGGSDILMTQSPSSMSVSLGDTVSITCHASQGISSNIGWLQQKPGKSFKGLIYHGTNLEDGVPSRFSGSGSGADYSLTISSLESEDFADYYCVQYVQFPYTFGGGTKLEIKRA
HI titer (n) (n (dilution 2^n)) [24]: > 8
HI titer (n) (n (dilution 2^n)) [25]: > 8
HI titer (n) (n (dilution 2^n)) [26]: > 8
HI titer (n) (n (dilution 2^n)) [27]: > 8
HI titer (n) (n (dilution 2^n)) [28]: 7
HI titer (n) (n (dilution 2^n)) [29]: 6
HI titer (n) (n (dilution 2^n)) [30]: > 8
HI titer (n) (n (dilution 2^n)) [31]: > 8
HI titer (n) (n (dilution 2^n)) [32]: 0
HI titer (n) (n (dilution 2^n)) [33]: > 8
HI titer (n) (n (dilution 2^n)) [34]: > 8
HI titer (n) (n (dilution 2^n)) [35]: 0
HI titer (n) (n (dilution 2^n)) [36]: > 8
HI titer (n) (n (dilution 2^n)) [37]: > 8
HI titer (n) (n (dilution 2^n)) [38]: > 8
HI titer (n) (n (dilution 2^n)) [39]: > 8
HI titer (n) (n (dilution 2^n)) [40]: > 8
HI titer (n) (n (dilution 2^n)) [41]: > 8
HI titer (n) (n (dilution 2^n)) [42]: 7.5
HI titer (n) (n (dilution 2^n)) [43]: 1
HI titer (n) (n (dilution 2^n)) [44]: 1
HI titer (n) (n (dilution 2^n)) [45]: 5
HI titer (n) (n (dilution 2^n)) [46]: 3
HI titer (n) (n (dilution 2^n)) [47]: 3.5
HI titer (n) (n (dilution 2^n)) [48]: 6
HI titer (n) (n (dilution 2^n)) [49]: 4
